From the DeepSol protein solubility set

assay: soluble on expression in E. coli; label from the status in PepcDB or PDB records

Sequence	soluble on expression in E. coli
MGHHHHHHSHMQHFKRTGTGTPVKRVRKAIEKSETTSEHTCQLCGGWFDTKIGLSNHVRGHLKRLGKTKWDAHKSPICVLNEMMQNEEKYEKILKALNSRRIIPRPFVAQKLASSDDFISQNVIPLEAYRNGLKTEALSVSASEEEGLNFLNEYDETKPELPSGKKNQSLTLIELLKNKRMGEERNSAISPQKIHNQTARKRFVQKCVLPLNEDSPLMYQPQKMDLTMHSALDCKQKKSRSRSGSKKKMLTLPHGADEVYILRCRFCGLVFRGPLSVQEDWIKHLQRHIVNANLPRTGAGMVEVTSLLKKPASITETSFSLLMAEAAS	not soluble
MQEGYREYRDIHARLNLPLLETGALVAAWSDEDLARLPAIVEQAHGNGVDDVRQVGRDEVLALEPQLAGNVLGAVRVPGEHLVDPWSAPLAYLQQALAHGAEACFDVEVLDGAFDGGEWLLHTRRGDLRASQVINCAGLFGDQLEQRLLGAASFAIHPRKGQFVVFDKAAAALLRHILLPVPNERTKGVVFTRTVFGNLLAGPTAEEQDDREQARVDSDTLQRLIDAAVERIPGLRGMPVTATYAGLRPASEKKEYRIRQVDGRNWISVGGIRSTGLTAALGIARHVYRLYQGERFHEAVREPLWPQVPNLAEHLPRDWQRPGYDEIVCHCEMVTRREILAALEGPLPAGDFGGLKRRTRACMGRCQGFYCNARVAELSAGRLAQPLATGSCHEHH	not soluble
MDNPVKLDTPVSGWRAGDGSAANYRQVVNYPASSVNVAADQATTARIRGAIESQPKDRPATLVVNGVSMPLKVDADGSFDRPFAFPSGSNSVEVRNAAGQSRRVQFYHGGGGGEVPAKLRVLLSWDSDNTDLDLHLVTPDGDHVWYGNRSLANGATLDVDVTTGYGPEIIATPTPQKGPYLVYVNYFGGGYGSSEDGAEQAAQDLTTARITLVTEEGTPNEKQETFLVPMRKPGELTLVKRFSYPLEHHHHHH	soluble
MVAIFDICAYFNNSILVIVDIIMTELLEPAARASTQETLTDQIFKKIQSAIVSGEIAAGSKISEPELARVYGISRGPLREAIHRLEGQKLVERTAHVGARVVSLSHQQLRELYQIRENLEGLACRLAAQSIDKQQILNLRDVLHLHAQDPDFKEGKGYYLQEGQDDFHYCIIKNCGNKTLEKMLCDELYHLIRMYRVQYSKTPNRPHRALSEHLHILNAIAEGDTELAELLMRRHIAASYRNIEQHFI	not soluble
MAENKKKNDDMATVEFESSEEVSIIPTFDKMGLREDLLRGIYAYGFEKPSAIQQRAIPAILKARDVIAQAQSGTGKTATFSISVLQSLDTQVRETQALILSPTRELAVQIQKVVLALGDYMNVQCHACIGGTNLGEDIRKLDYGQHVVSGTPGRVFDMIRRRNLRTRAIKLLVLDEADEMLNKGFKEQLYDIYRYLPPGAQVVLLSATLPHEILEMTSKFMTDPIRILVKRDELTLEGIKQFFVAVDREEWKFDTLIDLYDTLTITQAVLFCNTRRKVDWLTDKMKEANFTVSSMHGDMEQKDRDEVMKEFRAGTTRVLISTDVWARGLDVPQVSLVINYDLPNNRELYIHRIGRSGRFGRKGVAINFVKQDDVRILRDIEQYYSTQIDEMPMNIADII	not soluble
MGSDKIHHHHHHMENIESSFIDLPNPRKDIEDLQPYSAPLEGRRNLLRLDFNENTIGPSPLVIKSLREISRDEISAYPEYSGLKEKVVESLIKKNSNVNINSSEVGIFNGVDAAINAIFHAYGNFDDLMLTTLPTFGYYTPCAQMRGMQIKAIPYEGEGFQYPFDSICEFLTQNNPKILLICNPNNPTGTRLSPERIIEISKLSSKTLVVVDELYEAFTGDSVLPFLNFQTTPNLVVLRSLSKTAGLASLRIGFAIGHSKVINIVNRVTGPYDVNSFAVIAAFAALNDQSYIDSYVQEVLEARNWIKDQFEKHHVKHHIDGGNYFLLWPKSKPQLVEQKLKSSGILIRNMDKKKNLKGSIRVSIGTIDQMKRFWSAFRIVDEV	not soluble
SNAMHNHNNRLVITPGEPAGVGPDLAITLAQQDWPVELVVCADPALLLARASQLNLPLQLREYQADQPAIAQQAGSLTILPVKTAVNVVPGKLDVGNSHYVVETLAKACDGAISGEFAALVTGPVQKSIINDAGIPFIGHTEFFADRSHCQRVVMMLATEELRVALATTHLPLLAVPGAITQASLHEVITILDNDLKTKFGITQPQIYVCGLNPHAGEGGHMGHEEIDTIIPALNTLRQQGINLIGPLPADTLFQPKYLQHADAVLAMYHDQGLPVLKYQGFGRAVNITLGLPFIRTSVDHGTALELAATGTADVGSFITALNLAIKMINNSNE	soluble
